According to PMC11535040, “Requirement of Nek2a and cyclin A2 for Wapl-dependent removal of cohesin from prophase chromatin” (The EMBO Journal, 2024):

Target: T1, Flag-tagged Pds5b (wild type) from cells co-expressing Δ86-cyclin A2 (human, UniProt Q9NTI5 1-1447, phosphoserine at 1161 and 1166 (by Cdk1/2-cyclin A2))
T1 construct: Pds5b, human; insert by PCR on human cDNA; their state in this preparation was not measured; source: Hek293T co-expressing eGFP-Δ86-cyclin A2, taxol-arrested
T1 sequence (looked up): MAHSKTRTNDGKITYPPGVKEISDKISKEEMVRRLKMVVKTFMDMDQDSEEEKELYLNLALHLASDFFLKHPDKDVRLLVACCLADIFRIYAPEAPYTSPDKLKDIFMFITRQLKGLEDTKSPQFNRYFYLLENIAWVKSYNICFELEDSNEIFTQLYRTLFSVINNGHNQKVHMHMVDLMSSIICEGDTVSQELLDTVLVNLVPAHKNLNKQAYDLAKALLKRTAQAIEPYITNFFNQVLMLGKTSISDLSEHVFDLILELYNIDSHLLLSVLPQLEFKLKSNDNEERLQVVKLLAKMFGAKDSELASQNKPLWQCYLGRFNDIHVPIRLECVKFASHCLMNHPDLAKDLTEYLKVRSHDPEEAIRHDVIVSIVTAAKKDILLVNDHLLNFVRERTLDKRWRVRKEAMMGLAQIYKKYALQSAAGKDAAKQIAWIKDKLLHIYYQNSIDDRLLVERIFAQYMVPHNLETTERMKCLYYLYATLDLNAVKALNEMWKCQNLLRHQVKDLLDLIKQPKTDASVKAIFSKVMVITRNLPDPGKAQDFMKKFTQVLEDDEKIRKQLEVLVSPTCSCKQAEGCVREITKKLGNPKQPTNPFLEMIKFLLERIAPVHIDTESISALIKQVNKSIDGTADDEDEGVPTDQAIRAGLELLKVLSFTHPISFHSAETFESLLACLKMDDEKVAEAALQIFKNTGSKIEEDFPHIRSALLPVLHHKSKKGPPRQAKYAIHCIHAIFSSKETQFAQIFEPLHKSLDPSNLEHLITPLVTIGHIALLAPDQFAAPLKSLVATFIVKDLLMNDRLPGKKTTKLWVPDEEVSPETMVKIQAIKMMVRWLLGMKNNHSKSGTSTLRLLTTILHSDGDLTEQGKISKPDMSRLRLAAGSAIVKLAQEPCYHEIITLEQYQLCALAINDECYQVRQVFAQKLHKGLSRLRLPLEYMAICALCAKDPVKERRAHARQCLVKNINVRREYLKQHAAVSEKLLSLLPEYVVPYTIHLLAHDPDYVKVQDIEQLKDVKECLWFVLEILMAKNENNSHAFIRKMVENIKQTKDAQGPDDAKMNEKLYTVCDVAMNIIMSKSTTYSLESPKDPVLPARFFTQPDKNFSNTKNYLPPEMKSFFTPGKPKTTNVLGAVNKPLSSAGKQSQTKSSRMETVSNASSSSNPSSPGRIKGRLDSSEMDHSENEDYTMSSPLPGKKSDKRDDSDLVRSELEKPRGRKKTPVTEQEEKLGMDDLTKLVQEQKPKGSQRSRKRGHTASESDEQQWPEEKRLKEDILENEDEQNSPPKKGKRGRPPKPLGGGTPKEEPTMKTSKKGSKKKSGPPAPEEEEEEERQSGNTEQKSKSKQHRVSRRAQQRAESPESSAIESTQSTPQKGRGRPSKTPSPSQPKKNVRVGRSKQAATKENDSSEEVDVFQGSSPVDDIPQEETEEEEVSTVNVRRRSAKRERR
Test: pull-down; Flag-Pds5a or -b affinity-purified on anti-Flag beads from chromatin-free lysates of taxol-arrested Hek293T cells (expressed alone or with Nek2aΔMR and/or Δ86-cyclin A2); beads incubated with a mixture of recombinant Wapl (2 µl) and sororin (0.3 µg) in 15 µl cleavage buffer with kinase inhibitors, 20 min at 37 °C; bound and unbound fractions by immunoblotting
Conditions: both partners purified

B1: recombinant human Wapl (natural protein, UniProt Q7Z5K2 1-1190, looked up)
chain: MTSRFGKTYSRKGGNGSSKFDEVFSNKRTTLSTKWGETTFMAKLGQKRPNFKPDIQEIPKKPKVEEESTGDPFGFDSDDESLPVSSKNLAQVKCSSYSESSEAAQLEEVTSVLEANSKISHVVVEDTVVSDKCFPLEDTLLGKEKSTNRIVEDDASISSCNKLITSDKVENFHEEHEKNSHHIHKNADDSTKKPNAETTVASEIKETNDTWNSQFGKRPESPSEISPIKGSVRTGLFEWDNDFEDIRSEDCILSLDSDPLLEMKDDDFKNRLENLNEAIEEDIVQSVLRPTNCRTYCRANKTKSSQGASNFDKLMDGTSQALAKANSESSKDGLNQAKKGGVSCGTSFRGTVGRTRDYTVLHPSCLSVCNVTIQDTMERSMDEFTASTPADLGEAGRLRKKADIATSKTTTRFRPSNTKSKKDVKLEFFGFEDHETGGDEGGSGSSNYKIKYFGFDDLSESEDDEDDDCQVERKTSKKRTKTAPSPSLQPPPESNDNSQDSQSGTNNAENLDFTEDLPGVPESVKKPINKQGDKSKENTRKIFSGPKRSPTKAVYNARHWNHPDSEELPGPPVVKPQSVTVRLSSKEPNQKDDGVFKAPAPPSKVIKTVTIPTQPYQDIVTALKCRREDKELYTVVQHVKHFNDVVEFGENQEFTDDIEYLLSGLKSTQPLNTRCLSVISLATKCAMPSFRMHLRAHGMVAMVFKTLDDSQHHQNLSLCTAALMYILSRDRLNMDLDRASLDLMIRLLELEQDASSAKLLNEKDMNKIKEKIRRLCETVHNKHLDLENITTGHLAMETLLSLTSKRAGDWFKEELRLLGGLDHIVDKVKECVDHLSRDEDEEKLVASLWGAERCLRVLESVTVHNPENQSYLIAYKDSQLIVSSAKALQHCEELIQQYNRAEDSICLADSKPLPHQNVTNHVGKAVEDCMRAIIGVLLNLTNDNEWGSTKTGEQDGLIGTALNCVLQVPKYLPQEQRFDIRVLGLGLLINLVEYSARNRHCLVNMETSCSFDSSICSGEGDDSLRIGGQVHAVQALVQLFLERERAAQLAESKTDELIKDAPTTQHDKSGEWQETSGEIQWVSTEKTDGTEEKHKKEEEDEELDLNKALQHAGKHMEDCIVASYTALLLGCLCQESPINVTTVREYLPEGDFSIMTEMLKKFLSFMNLTCAVGTTGQKSISRVIEYLEHC
notes: Wapl, human; insert by PCR on human cDNA; Isolated from mitotically arrested cells; also called GFP-SUMOstar-Wapl; source: Hek293T, transiently transfected, taxol-arrested; not shown: GFP, N-terminal, cleaved; SUMOstar, N-terminal, cleaved
Does B1 bind?
Result: binds
